A word on the Km: it is the substrate concentration at which the rate is half of its maximum. The Vmax is the rate approached at saturating substrate.

Holding throughout (assay): purified protein
Substrate in data set [1]: NC(=O)C1=CN([C@@H]2O[C@H](COP(=O)(O)OP(=O)(O)OC[C@H]3O[C@@H](n4cnc5c(N)ncnc54)[C@H](O)[C@@H]3O)[C@@H](O)[C@H]2O)C=CC1
The settings on record: apparent, Orange I 30 μM, potassium phosphate pH 6.8, room temperature (general assay).

Substrate in data set [2]: NC(=O)C1=CN([C@@H]2O[C@H](COP(=O)(O)OP(=O)(O)OC[C@H]3O[C@@H](n4cnc5c(N)ncnc54)[C@H](OP(=O)(O)O)[C@@H]3O)[C@@H](O)[C@H]2O)C=CC1
The settings on record: apparent, Orange I 30 μM, potassium phosphate pH 6.8, room temperature (general assay).

Substrate in data set [3]: O=S(=O)(O)c1ccc(N=Nc2ccc(O)c3ccccc23)cc1
The conditions noted are these: apparent, co-substrate NADPH 1 mM, potassium phosphate pH 6.8, room temperature (general assay).

B1: AzoB (Pigmentiphaga kullae) (protein)
chain: MNIAIIGATGNVGSRLVNEALARGHHVTAIARHASRLAARPGLDTLDIDLADGAKLAGALRGKDAAISSVRFATSPLAAVLGPVRQAGLRRLLVVGGAGSLEVAPGAALVDTPTFPAEYKPEALAGRDWLNALRTEKDLDWTFLSPSALFVPGERTGTFRLGGDTLLTAADGRSWISMEDFAIAMLDEVEKPAHTGRRFTVGY
For B1, the Km turned out to be 170 µM in data set [1], 1.0 µM in data set [2] and 3.0 µM in data set [3]. Moreover, the Vmax in data set [1] amounted to 17 µmol/min/mg; in data set [2] it was 33 µmol/min/mg; in data set [3] it was 36 µmol/min/mg.

For the origin of these results see article PMC2858024, “Identification and molecular characterization of a novel flavin-free NADPH preferred azoreductase encoded by azoB in Pigmentiphaga kullae K24” (BMC Biochemistry, 2010).
